The source of these data is US20160193316A1 (priority 1994, published 2016).

The target of one assay is HLA-A*1101 (Homo sapiens, UniProt P04439, A114D/D185E/E176A/F33Y/L180Q/S129P/T187R). In words: HLA class I peptide binding assay. The following applies: Table XVII.
The target in the next assay is T1, HLA-A*0301 (Homo sapiens, UniProt P04439).
T1 construct: endogenous in cells; host or cells: GM3107
The experiment in a line: HLA class I peptide binding assay. Particulars: for A*0301 (binding information): Table XVI, Malaria A3 motif peptides; for A*301 (binding data): Malaria A03 supermotif peptides.

For a further assay, the target named is T2, DRB1*0401 (DR4w4) (Homo sapiens, UniProt P01903+P01911, A100K/A169T/F76Y/I96L/K127E/L162R/M171V/N62H/P40V/Q125Y/R42H/S133A/S149N/S66Y/V115G/V209L/W38E).
T2 construct: endogenous in cells; host or cells: Preiss
In words: HLA class II peptide binding assay. Particulars: for DR4w4 binding data: Table XIXb.

The target of another assay is T3, DRB1*0701 (DR7) (Homo sapiens, UniProt P01903+P01911, A100R/A102G/A103Q/D57E/D86V/E43K/F76Y/K127E/L162R/M171V/P40G/Q125H/Q99D/R33Q/R42Y/R54Q/S133A/S66F/T210M/V115G/Y107V/Y59L/Y89S).
T3 construct: endogenous in cells; host or cells: Pitout
In words: biochemical. The class given is binding.

Another assay has as its target T4, DRB1*0101 (DR1) (Homo sapiens, UniProt P01903+P01911, A100R/D57E/F55L/F60I/F76Y/I96L/L162R/M171V/P40L/Q125E/R42F/V115G/Y59C).
T4 construct: endogenous in cells; host or cells: LG2
The experiment in a line: HLA class II peptide binding assay. The following applies: for DR1 binding data: Table XIXb, Malaria Super Motif Peptides With Binding Data.

The next assay deals with T5, DRB1*0405 (DR4w15) (Homo sapiens, UniProt P01903+P01911, A100R/A169T/D86S/F76Y/I96L/K127E/L162R/M171V/N62H/P40V/Q125Y/R42H/S133A/S149N/S66Y/V115G/V209L/W38E).
T5 construct: endogenous in cells; host or cells: KT3
In words: HLA class II peptide binding assay.

In another assay the target is T6, DRB1*1201 (DR5w12) (Homo sapiens, UniProt P01903+P01911, A100R/A169T/D57E/D86V/F55L/H45Y/K41T/L162R/M171V/P40S/Q125H/Q178H/Q39Y/Q99D/R42G/S66L/T262R/V114A/V67L/W38E/Y59H/Y61H/Y89S).
T6 construct: endogenous in cells; host or cells: Herluf
The experiment in a line: HLA class II peptide binding assay.

For a further assay, the target named is T7, DRB1*0802 (DR8w2) (Homo sapiens, UniProt P01903+P01911, A100R/A103L/A169T/F76Y/H45Y/I96F/K41T/L162R/M171V/P40S/Q125H/Q178H/Q39Y/Q99D/R218S/R42G/S66Y/V115G/W38E).
T7 construct: endogenous in cells; host or cells: OLL
The experiment in a line: biochemical. The class given is binding.

Another assay addresses T8, DRB4*0101 (DRw53) (Homo sapiens, UniProt P01903+P13762, G164S).
T8 construct: expressed in transfected cells; host or cells: L257.6 (fibroblasts)
In words: HLA class II peptide binding assay (pH 5.0). The following applies: Table XIXb; DRw53.

In a further assay the target is T9, DRB1*1101 (DR5w11) (Homo sapiens, UniProt P01903+P01911, A100R/A169T/A87E/I96F/K41T/L162R/M171V/P40S/Q125H/Q178H/Q39Y/Q99D/R42S/S66Y/T262R/V115G/W38E).
T9 construct: endogenous in cells; host or cells: Sweig
The experiment in a line: biochemical. The class given is binding.

A further assay concerns the target T10, DRB5*0101 (DR2w2β2) (Homo sapiens, UniProt P01903+Q30154).
T10 construct: expressed in transfected cells; host or cells: L416.3 (fibroblasts) or GM3107
The class given is binding.

The next assay addresses T11, DRB1*0301 (DR3) (Homo sapiens, UniProt P01903+P01911, A100K/A102G/A103R/A169T/F55Y/I96L/K41T/L162R/M171V/P40S/Q125H/Q178H/Q39Y/R42S/S66N/T106N/T262R/W38E/Y61H).
T11 construct: endogenous in cells; host or cells: MAT
The experiment in a line: HLA class II peptide binding assay (pH 4.5). Particulars: DR3a motif peptides; unit not given; exemplary 15-mer containing the core sequence.

[1] abbreviates: Malaria A11 motif peptides, binding value for HLA-A*1101, unit not given.
Setting [2] is: malaria A11 motif peptides, binding value unit not given.
Where [3] appears, read: binding value to HLA-A*0301, unit not given.
[4] abbreviates: DR3a motif peptides, unit not given, exemplary 15-mer containing the core sequence.
The mark [5] stands for this setting: Malaria A11 motif peptides, HLA-A*1101 binding value, unit not given.

T2 sequence (P01903 26-254 partner, other chains not shown): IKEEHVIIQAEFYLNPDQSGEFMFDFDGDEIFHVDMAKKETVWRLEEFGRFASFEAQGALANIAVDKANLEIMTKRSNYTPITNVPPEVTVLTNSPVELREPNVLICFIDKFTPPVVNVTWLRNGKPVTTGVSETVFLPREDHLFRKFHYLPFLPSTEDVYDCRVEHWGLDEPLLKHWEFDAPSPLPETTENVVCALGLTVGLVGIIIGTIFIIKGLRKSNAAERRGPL
T4 sequence (P01903 26-254 partner, other chains not shown): as above
T9 sequence (P01903 26-254, other chains not shown): as the sequence (P01903 26-254 partner, other chains not shown) above

As for KGKKYEKIK, the “A*1101 binding information” value in the assay with HLA-A*1101 (setting [1]) was 0.0002. Also, in the assay with HLA-A*0301 (HLA-A*0301 binding value, unit not given), the “A*0301 (binding information)” value is reported as 0.0002.

Sequence LAMKLIQQL returned a DR4w4 binding data with DRB1*0401 (DR4w4) of 0.0023. The DR7 binding data with DRB1*0701 (DR7) stood at 0.0770. The same sequence yielded a DR1 binding data with DRB1*0101 (DR1) of 0.0015. This sequence showed a DR4w15 binding data in the assay with DRB1*0405 (DR4w15) (Table XIXb, DR4w15) of 0.0013. Moreover, the DR5w12 binding data in the assay with DRB1*1201 (DR5w12) (Table XIXb, DR5w12) amounted to 0.1300. The same sequence had a DR8w2 binding data with DRB1*0802 (DR8w2) of 0.0400. The DRw53 binding data in the assay with DRB4*0101 (DRw53) is reported as 0.0350. Moreover, in the assay with DRB1*1101 (DR5w11), the DR5w11 binding data was 0.0002. In the assay with DRB5*0101 (DR2w2β2), this sequence came in with a DR2w2β2 binding data of -0.0006.

Regarding VDELSEDTK, the “A*1101 binding information” value in the assay with HLA-A*1101 (setting [2]) came to 0.0002.

CSVTCGKGTR: the “A*1101 binding information” value in the assay with HLA-A*1101 (setting [2]) turned out to be 0.0002. The “A*0301 (binding information)” value in the assay with HLA-A*0301 (setting [3]) is 0.0002. Moreover, the “A*301 (binding data)” value with HLA-A*0301 (binding value, no unit given) is 0.0002.

For the sequence FDEILGEEDK, the “A*1101 binding information” value in the assay with HLA-A*1101 (setting [2]) is recorded as 0.0002.

Regarding NSEDRETPPH, the “A*1101 binding information” value in the assay with HLA-A*1101 (setting [2]) was 0.0002.

Consider IFLKENIQNK, for which the “A*1101 binding information” value in the assay with HLA-A*1101 (setting [1]) is given as 0.0002.

On to LGVSENTIFLK, for which, in the assay with HLA-A*1101 (setting [1]), the “A*1101 binding information” value worked out at 0.0063.

VWDEWSPCS came in with a DR4w4 binding information in the assay with DRB1*0401 (DR4w4) (setting [4]) of -0.0009. In addition, the DR3 binding information with DRB1*0301 (DR3) is -0.0041. In the assay with DRB1*0701 (DR7), the DR7 binding information is recorded as -0.0003. Moreover, the DR1 binding information with DRB1*0101 (DR1) (setting [4]) was 0.0001. Further, in the assay with DRB1*0405 (DR4w15) (setting [4]), the DR4w15 binding information is reported as -0.0009. For the same sequence, in the assay with DRB1*1201 (DR5w12) (setting [4]), the DR5w12 binding information is recorded as 0.0001. The sequence further showed a DR8w2 binding information with DRB1*0802 (DR8w2) of -0.0003. Also, the DR5w11 binding information with DRB1*1101 (DR5w11) is -0.0002. Moreover, the DR2w2β2 binding information with DRB5*0101 (DR2w2β2) is -0.0005.

As for EMADCTNK, the “A*1101 binding information” value with HLA-A*1101 (setting [5]) is on record as 0.0002.

Turning to LSTNLPYGR, the “A*1101 binding information” value with HLA-A*1101 (setting [2]) stood at 0.0100. Besides, the DR4w4 binding data with DRB1*0401 (DR4w4) is 0.0120. This sequence returned a DR7 binding data with DRB1*0701 (DR7) of 0.0005. Moreover, in the assay with DRB1*0101 (DR1), the DR1 binding data came out at 0.0012. For the same sequence, the “A*0301 (binding information)” value with HLA-A*0301 (setting [3]) is recorded as 0.0004. Besides, the “A*301 (binding data)” value with HLA-A*0301 (Table IX) is 0.0004.

CCKGIRSRKR: the “A*1101 binding information” value in the assay with HLA-A*1101 (setting [2]) turned out to be 0.0002.

As to VLYNTEXGRH, in the assay with HLA-A*1101 (setting [5]), the “A*1101 binding information” value amounted to 0.0002.

As to ESITINVEGR, the “A*1101 binding information” value with HLA-A*1101 (setting [1]) was found to be 0.0002.

Consider TCGKGIRSRK, for which, in the assay with HLA-A*1101 (setting [2]), the “A*1101 binding information” value stood at 0.0002.

Consider HORNNENRSY, for which the “A*1101 binding information” value in the assay with HLA-A*1101 (setting [2]) worked out at 0.0002.

As for KSLYDEHIIK, in the assay with HLA-A*1101 (setting [1]), the “A*1101 binding information” value is 0.0340.
